Test [1] concerns the target human thyroid-stimulating hormone receptor (TSHR) (human) (UniProt P16473). Kind of test: flow cytometry (FACS), 293 cells overexpressing human TSHR; negative control.
Test [2] concerns the target mouse thyroid-stimulating hormone receptor (TSHR) (mouse) (UniProt P47750). Kind of test: flow cytometry (FACS), 293 cells overexpressing mouse TSHR; negative control. (In general: Flow cytometry measures light scatter and fluorescence of single cells or particles in a stream.)
Test [3] has as its target monkey thyroid-stimulating hormone receptor (TSHR) (monkey). The test can be described thus: flow cytometry (FACS), 293 cells overexpressing monkey TSHR; negative control.

These results are taken from EP4582451A1.

Chain of mouse thyroid-stimulating hormone receptor (TSHR) (mouse) (P47750 22-764): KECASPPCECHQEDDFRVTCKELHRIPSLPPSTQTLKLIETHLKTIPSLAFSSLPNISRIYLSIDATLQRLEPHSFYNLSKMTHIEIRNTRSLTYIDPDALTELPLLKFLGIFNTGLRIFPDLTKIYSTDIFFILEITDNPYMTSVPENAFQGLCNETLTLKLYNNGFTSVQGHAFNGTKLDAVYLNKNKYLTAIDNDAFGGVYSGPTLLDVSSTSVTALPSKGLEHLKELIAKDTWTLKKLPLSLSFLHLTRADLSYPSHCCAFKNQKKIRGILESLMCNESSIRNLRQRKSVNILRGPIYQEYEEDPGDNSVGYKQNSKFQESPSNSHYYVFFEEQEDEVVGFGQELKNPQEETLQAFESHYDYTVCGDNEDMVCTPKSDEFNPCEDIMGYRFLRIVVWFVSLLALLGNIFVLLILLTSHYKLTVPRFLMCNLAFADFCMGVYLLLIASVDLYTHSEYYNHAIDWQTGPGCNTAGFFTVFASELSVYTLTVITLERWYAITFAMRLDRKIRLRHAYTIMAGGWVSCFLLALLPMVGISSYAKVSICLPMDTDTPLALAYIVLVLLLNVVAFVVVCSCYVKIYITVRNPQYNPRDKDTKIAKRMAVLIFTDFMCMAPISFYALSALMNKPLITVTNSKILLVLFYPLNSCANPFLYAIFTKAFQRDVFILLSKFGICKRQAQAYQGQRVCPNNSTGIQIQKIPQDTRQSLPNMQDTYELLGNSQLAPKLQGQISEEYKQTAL
Chain of monkey thyroid-stimulating hormone receptor (TSHR) (monkey) (A0A2K5 entry or part of it limits assumed, form in doubt): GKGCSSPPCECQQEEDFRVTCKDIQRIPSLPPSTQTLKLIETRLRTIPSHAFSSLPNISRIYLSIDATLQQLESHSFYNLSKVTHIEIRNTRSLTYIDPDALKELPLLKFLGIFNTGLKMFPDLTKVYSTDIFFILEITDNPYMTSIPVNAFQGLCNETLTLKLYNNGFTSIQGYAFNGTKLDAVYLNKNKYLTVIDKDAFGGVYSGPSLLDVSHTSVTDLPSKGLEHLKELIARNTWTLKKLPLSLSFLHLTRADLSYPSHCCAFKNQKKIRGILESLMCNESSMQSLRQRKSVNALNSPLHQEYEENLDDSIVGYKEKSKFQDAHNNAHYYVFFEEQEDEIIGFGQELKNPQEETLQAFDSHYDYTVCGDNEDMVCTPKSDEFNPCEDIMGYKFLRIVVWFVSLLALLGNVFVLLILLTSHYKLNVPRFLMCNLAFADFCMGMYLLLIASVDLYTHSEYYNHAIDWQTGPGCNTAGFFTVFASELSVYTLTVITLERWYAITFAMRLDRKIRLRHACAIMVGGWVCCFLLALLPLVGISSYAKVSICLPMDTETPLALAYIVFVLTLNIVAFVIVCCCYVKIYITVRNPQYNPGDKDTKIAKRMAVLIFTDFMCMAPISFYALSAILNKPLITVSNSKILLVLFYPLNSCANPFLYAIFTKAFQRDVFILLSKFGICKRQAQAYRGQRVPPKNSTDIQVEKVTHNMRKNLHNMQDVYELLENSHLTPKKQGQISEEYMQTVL
Chain of human thyroid-stimulating hormone receptor (TSHR) (human) (P16473 21-764): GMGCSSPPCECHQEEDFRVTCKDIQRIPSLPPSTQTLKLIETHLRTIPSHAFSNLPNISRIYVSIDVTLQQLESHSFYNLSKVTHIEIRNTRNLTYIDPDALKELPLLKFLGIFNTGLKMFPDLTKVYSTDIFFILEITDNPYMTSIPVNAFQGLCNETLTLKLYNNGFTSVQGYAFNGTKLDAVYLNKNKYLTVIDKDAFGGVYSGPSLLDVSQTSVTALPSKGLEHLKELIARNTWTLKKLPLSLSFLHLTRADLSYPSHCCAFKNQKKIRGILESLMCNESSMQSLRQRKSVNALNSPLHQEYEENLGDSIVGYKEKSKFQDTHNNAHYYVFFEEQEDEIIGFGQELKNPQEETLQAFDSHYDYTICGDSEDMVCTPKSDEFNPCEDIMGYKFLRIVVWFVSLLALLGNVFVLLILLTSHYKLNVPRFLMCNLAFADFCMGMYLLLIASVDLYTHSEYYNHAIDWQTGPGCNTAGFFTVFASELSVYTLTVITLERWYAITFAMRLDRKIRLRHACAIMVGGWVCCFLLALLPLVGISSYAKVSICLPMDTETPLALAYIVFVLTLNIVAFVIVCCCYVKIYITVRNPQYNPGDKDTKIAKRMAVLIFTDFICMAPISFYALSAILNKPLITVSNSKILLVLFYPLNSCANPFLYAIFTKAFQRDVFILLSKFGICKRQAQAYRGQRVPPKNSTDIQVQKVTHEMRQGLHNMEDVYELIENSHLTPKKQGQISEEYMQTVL

Take “hIgG1 negative control (Biointron B117901) (antibody)”: the Max MFI came out at 3590 in test [1], 2130 in test [2] and 3560 in test [3].
Turning to “hIgG4 negative control (Biointron B107804) (antibody)”, the Max MFI in test [1] amounted to 1690; in test [2], 1530; in test [3] it was 1770.
